Each block holds one binder with its values, some of them ahead of it. No end group written: not given here.
Legend:
Details in all cases: both partners purified
[1] = biological target: T1, hRARα/mRXRα LBD heterodimer (human | mouse, UniProt P10276 153-421; P28700 228-467); test: fluorescence polarisation; fluorescence anisotropy; hRARα/mRXRα LBDs added to a fixed concentration of TAMRA-SRC-1 NR2 peptide; 20°C; 10 mM TRIS-HCl pH 7.5, 150 mM NaCl, 10 mM DTT; apparent; RAR apo, RXR apo
T1 construct: Heterodimer formed beforehand; small-molecule ligands (atRA, LG100754, AM580, BMS614, BMS649, 9-cisRA, HX531) differ between experiments and are named in the assays; also called RARα/RXRα LBD; RAR/RXR; not shown: His6, N-terminal, kept; copies: 1 + 1
T1 sequence (looked up) 1: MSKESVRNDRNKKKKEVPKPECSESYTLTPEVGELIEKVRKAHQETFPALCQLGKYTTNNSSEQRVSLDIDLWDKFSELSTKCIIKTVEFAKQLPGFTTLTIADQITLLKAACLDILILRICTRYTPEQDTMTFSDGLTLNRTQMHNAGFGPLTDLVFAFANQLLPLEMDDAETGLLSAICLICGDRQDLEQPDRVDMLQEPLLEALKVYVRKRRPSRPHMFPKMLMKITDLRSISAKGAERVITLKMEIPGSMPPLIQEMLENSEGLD
T1 sequence (looked up) 2: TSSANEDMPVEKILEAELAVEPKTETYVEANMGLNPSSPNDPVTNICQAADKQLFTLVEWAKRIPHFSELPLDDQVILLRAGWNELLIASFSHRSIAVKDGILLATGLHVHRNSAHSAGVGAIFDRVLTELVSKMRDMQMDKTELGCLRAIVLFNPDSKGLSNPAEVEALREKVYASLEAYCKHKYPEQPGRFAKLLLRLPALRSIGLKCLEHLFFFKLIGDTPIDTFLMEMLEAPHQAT

[2] = biological target: T1, hRARα/mRXRα LBD heterodimer; test: fluorescence polarisation; fluorescence anisotropy; hRARα/mRXRα LBDs added to 1 µM TAMRA-SRC-1 NR2 peptide; 20°C; 10 mM TRIS-HCl pH 7.5, 150 mM NaCl, 10 mM DTT; apparent; RAR ligand AM580, RXR apo
[3] = biological target: T1, hRARα/mRXRα LBD heterodimer; test: fluorescence polarisation; fluorescence anisotropy; hRARα/mRXRα LBDs added to 1 µM TAMRA-SRC-1 NR2 peptide; 20°C; 10 mM TRIS-HCl pH 7.5, 150 mM NaCl, 10 mM DTT; apparent; RAR apo, RXR ligand BMS649
[4] = biological target: T1, hRARα/mRXRα LBD heterodimer; test: fluorescence polarisation; fluorescence anisotropy; hRARα/mRXRα LBDs added to 1 µM TAMRA-SRC-1 NR2 peptide; 20°C; 10 mM TRIS-HCl pH 7.5, 150 mM NaCl, 10 mM DTT; apparent; RAR ligand AM580, RXR ligand LG100754
[5] = biological target: T1, hRARα/mRXRα LBD heterodimer; test: fluorescence polarisation; fluorescence anisotropy; hRARα/mRXRα LBDs added to 1 µM TAMRA-SRC-1 NR2 peptide; 20°C; 10 mM TRIS-HCl pH 7.5, 150 mM NaCl, 10 mM DTT; apparent; RAR ligand BMS614, RXR ligand BMS649
[6] = biological target: T1, hRARα/mRXRα LBD heterodimer; test: fluorescence polarisation; fluorescence anisotropy; hRARα/mRXRα LBDs added to a fixed concentration of TAMRA-SRC-1 NR2 peptide; 20°C; 10 mM TRIS-HCl pH 7.5, 150 mM NaCl, 10 mM DTT; apparent; RAR ligand BMS614, RXR ligand LG100754
[7] = biological target: T1, hRARα/mRXRα LBD heterodimer; test: fluorescence polarisation; fluorescence anisotropy; hRARα/mRXRα LBDs added to a fixed concentration of TAMRA-SRC-1 NR2 peptide; 20°C; 10 mM TRIS-HCl pH 7.5, 150 mM NaCl, 10 mM DTT; apparent; RAR apo, RXR ligand LG100754
[8] = biological target: T1, hRARα/mRXRα LBD heterodimer; test: fluorescence polarisation; fluorescence anisotropy; hRARα/mRXRα LBDs added to 1 µM TAMRA-SRC-1 NR2 peptide; 20°C; 10 mM TRIS-HCl pH 7.5, 150 mM NaCl, 10 mM DTT; apparent; RAR ligand AM580, RXR ligand BMS649; two sites, fit gave k2 identical to k1
[9] = biological target: T1, hRARα/mRXRα LBD heterodimer; test: fluorescence polarisation; fluorescence anisotropy; hRARα/mRXRα LBDs added to 1 µM TAMRA-SRC-1 NR2 peptide; 20°C; 10 mM TRIS-HCl pH 7.5, 150 mM NaCl, 10 mM DTT; apparent; 9-cisRA on RAR and RXR; two sites, fit gave k2 identical to k1
[10] = biological target: T2, human RARα LBD (residues 153-421) (human, UniProt P10276 153-421); test: ITC; SRC-1 NR2 peptide (1.3 mM) injected into 20-50 µM RAR with an RAR agonist in fivefold molar excess (agonist not named); 30°C; 20 mM Tris pH 8.0, 200 mM NaCl, 2% ethanol
T2 construct: Cloned in pET15b; The purification of RARα alone is not described; also called hRARα LBD; RARα monomer; source: E. coli BL21 (DE3), purified
T2 sequence (looked up): T1 sequence (looked up) 1

[11] = biological target: T2, human RARα LBD (residues 153-421); test: ITC; SRC-1 NR2 peptide (1.3 mM) injected into 20-50 µM RAR or RAR/RXR with LG100754 in fivefold molar excess; 30°C; 20 mM Tris pH 8.0, 200 mM NaCl, 2% ethanol
[12] = biological target: T3, hRARα/mRXRα LBD heterodimer (human | mouse, UniProt P10276 153-421; P28700 228-467); test: as above
T3 construct: RARα in pET15b (His-tagged), RXRα in pET3a (no tag named); The heterodimer was formed beforehand by copurification; also called RAR/RXR; RARα/RXRα LBD; copies: 1 + 1
T3 sequence (looked up) 1: T1 sequence (looked up) 1
T3 sequence (looked up) 2: T1 sequence (looked up) 2

[13] = biological target: T2, human RARα LBD (residues 153-421); test: ITC; SRC-1 NR2 peptide (1.3 mM) injected into 20-50 µM RAR without ligand (apo); 30°C; 20 mM Tris pH 8.0, 200 mM NaCl, 2% ethanol

Kd [1]: 2000 ± 100 nM
Kd [2]: 190 ± 20 nM
Kd [3]: 420 ± 30 nM
Kd [4]: 170 ± 10 nM
Kd [5]: 450 ± 40 nM
Kd [6]: > 10000 nM
Kd [7]: 2500 ± 100 nM
Kd [8]: 290 ± 20 nM
Kd [9]: 610 ± 20 nM
B1: TAMRA-labeled SRC-1 NR2 peptide (686-RHKILHRLLQEGS-698) (peptide)
peptide: RHKILHRLLQEGS
modifications: also: TAMRA label, position not given here
notes: also called (TAMRA) – SRC-1 NR2 peptide; source: bought: Neosystem (Strasbourg, France)

Kd [10]: 1400 ± 100 nM
Kd [11]: 1600 ± 200 nM
Kd [12]: 4500 ± 600 nM
Kd [13]: 9000 ± 400 nM
B2: SRC-1 NR2 peptide (676-[residues removed]-700) (peptide)
peptide: CPSSHSSLTERHKILHRLLQEGSPS
notes: The unlabelled 25-residue peptide used in ITC and ESI-MS; It is not the 13-residue TAMRA-labelled peptide of the anisotropy titrations

Source: publication PMC2994906 (PLoS ONE, 2010)
